The text below walks through data of patent publication US20260055176A1 (SURFACE ONCOLOGY, published 2026).

Test [1] addresses T1, recombinant human IL-27 (human, UniProt Q14213 21-229; Q8NEV9 29-243).
T1 construct: Bought heterodimeric cytokine (R&D Systems); the whole exemplary entries for EBI3 and p28 are named here, signal peptides included; also called hIL-27; rhIL-27
T1 sequence 1: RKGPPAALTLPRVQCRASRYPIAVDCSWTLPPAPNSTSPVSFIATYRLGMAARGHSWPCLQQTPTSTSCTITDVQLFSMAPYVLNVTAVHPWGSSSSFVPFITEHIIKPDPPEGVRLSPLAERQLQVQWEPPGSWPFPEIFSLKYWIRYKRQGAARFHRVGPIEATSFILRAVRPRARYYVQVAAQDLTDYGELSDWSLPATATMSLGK
T1 sequence 2: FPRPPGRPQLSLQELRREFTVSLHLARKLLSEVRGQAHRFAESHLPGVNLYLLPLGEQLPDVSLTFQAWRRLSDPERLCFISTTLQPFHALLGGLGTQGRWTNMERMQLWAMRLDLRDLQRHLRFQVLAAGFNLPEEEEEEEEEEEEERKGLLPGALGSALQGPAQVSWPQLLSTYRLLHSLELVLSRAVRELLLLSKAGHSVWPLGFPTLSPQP
Nature of the test: SPR (Biacore T200), hIL-27 immobilised on CM5, single cycle kinetics. On the procedure: The antibodies were further characterized by surface plasmon resonance (SPR). Kinetic experiments were performed on a Biacore T200 (GE Healthcare, Uppsala, Sweden). All experiments were run at 25° C. with HBS-P+running buffer (pH 7.4) (GE Healthcare, Little Chalfont, UK) using hIL-27 (R&D Systems, Abingdon, UK). Human IL-27 (hIL-27) antigen was captured on a CM5 chip to ˜ 16 RU. Immobilization was carried out at a protein concentration of 1 μg/mL in 10 mM acetate buffer pH 5.0. A three point, three-fold dilution range from 3.3 nM to 30 nM of antibody diluted in HBS-P+buffer without regeneration between each concentration was used. The association phase for the three injections of increasing concentrations of antibody was monitored for 75 seconds each time and a single dissociation phase was measured for 250 seconds following the last injection of antibody. Regeneration of the hIL-27 surface was conducted using a single injection of 2M MgCl₂ for 120s. Multiple repeats (n=4) of the chimeric antibody were performed throughout the assay to check the stability of the surface and analyte over the kinetic cycles.
A general note: In SPR one partner is held on a chip, and binding of the other changes the refractive index at the surface.

The target in test [2] is T1, recombinant human IL-27. Nature of the test: cell-based or functional assay.
Test [3] has as its target T1, recombinant human IL-27. Nature of the test: MSD sandwich immunoassay: named antibody coated as capture (0.5 ug/mL), recombinant human IL-27 500 ng/mL, biotinylated SRF381 as detection, SULFO-TAG streptavidin. The procedure:
The ability of anti-IL-27 antibodies to pair with the anti-p28 antibody SRF381 to detect recombinant human IL-27 was assessed by sandwich MSD Immunoassay. Briefly, MSD QUICKPLEX 96-well plates (Meso Scale Discovery L55XA) were coated with 50 μL/well anti-IL-27 antibodies (0.5 μg/mL diluted in PBS) sealed and incubated overnight at 4° C. Plates were washed 3 times with 150 μL/well of wash buffer (PBS+0.01% Tween). Plates were then blocked with 200 μL/well of blocking buffer (PBS+1% BSA+0.01% Tween) for 1 hour at room temperature (RT) with shaking. Blocking buffer was decanted, plates were washed 3 times with 150 μL/well of wash buffer, and 50 μL/well recombinant human IL-27 (R&D Systems 2526-IL/CF) (500 ng/mL diluted in blocking buffer) was added to each well for 2 hours at RT with shaking. Plates were washed 3 times with 150 μL/well of wash buffer, and 50 μL biotinylated SRF381 (diluted 0.5 μg/mL in blocking buffer) was added to each well for 1 hour at RT with shaking. […] Plates were washed 3 times with 150 μL/well of wash buffer and 150 μL of MSD read buffer (Meso Scale Discovery R92TC-1) (diluted to 2X in deionized water) was added to each well and plates were read on a MESO QUICKPLEX SQ120.

B1: Ab7.7 (antibody, human IgG1, kappa, V domains shown)
VH: EVKLVESGGGLVQPGGSLRLSCAASGFTFTSYSMSWVRQAPGKGLEWVAYISYDGGSAYYPDTVKGRFTISRDNSKKTLYLQMSSLKSEDTAMYYCARHGDYDDDDAMDYWGQGTSVTVSS
VL: DIQMTQSPSSLSASVGDRVTITCRASENIYSYLNWYQQKPGKAPKLLVYNAETLTEGVPSRFSGSGSGTDFTLTISSLQPEDFATYYCQHHYGTPLTFGQGTKLEIKR
notes: humanized, human IgG1 / kappa; Ab7-VL4 variant; also called Ab7-VH1-IgG1 + Ab7-VL4-Kappa
On to B1, for which the binding result in the test with recombinant human IL-27 [1] is recorded as “no binding (tested: 30 nM)”.

B2: Ab7.11 (antibody, human IgG1, kappa, V domains shown)
VH: EVQLVESGGGLVQPGGSLRLSCAASGFTFTSYSMSWVRQAPGKGLEWVAYISYDGGSAYYPDTVKGRFTISRDNSKNTLYLQMSSLKSEDTAMYYCARHGDYDDDDAMDYWGQGTLVTVSS
VL: DIQMTQSPSSLSASVGDRVTITCRASENIYSYLNWYQQKPGKAPKLLVYNAETLTEGVPSRFSGSGSGTDFTLTISSLQPEDFATYYCQHHYGTPLTFGQGTKLEIKR
notes: humanized, human IgG1 / kappa; Ab7-VL4 variant; also called Ab7-VH2-IgG1 + Ab7-VL4-Kappa
Consider B2, for which the binding result with recombinant human IL-27 [1] is on record as “no binding (tested: 30 nM)”.

B3: Ab7.19 (antibody, human IgG1, kappa, V domains shown)
VH: EVQLVESGGGLVQPGGSLRLSCAASGFTFTSYSMSWVRQAPGKGLEWVAYISYDGGSAYYPDTVKGRFTISRDNSKNTLYLQMNSLRAEDTAVYYCARHGDYDDDDAMDYWGQGTLVTVSS
VL: DIQMTQSPSSLSASVGDRVTITCRASENIYSYLNWYQQKPGKAPKLLVYNAETLTEGVPSRFSGSGSGTDFTLTISSLQPEDFATYYCQHHYGTPLTFGQGTKLEIKR
notes: humanized, human IgG1 / kappa; Ab7-VL4 variant; also called Ab7-VH4-IgG1 + Ab7-VL4-Kappa
For the molecule B3, the binding result in the test with recombinant human IL-27 [1] is reported as “no binding (tested: 30 nM)”.

B4: Ab7.15 (antibody, human IgG1, kappa, V domains shown)
VH: EVKLVESGGGLVQPGGSLRLSCAASGFTFTSYSMSWVRQAPGKGLEWVAYISYDGGSAYYPDTVKGRFTISRDNSKKTLYLQMNSLRAEDTAVYYCARHGDYDDDDAMDYWGQGTLVTVSS
VL: DIQMTQSPSSLSASVGDRVTITCRASENIYSYLNWYQQKPGKAPKLLVYNAETLTEGVPSRFSGSGSGTDFTLTISSLQPEDFATYYCQHHYGTPLTFGQGTKLEIKR
notes: humanized, human IgG1 / kappa; Ab7-VL4 variant; also called Ab7-VH3-IgG1 + Ab7-VL4-Kappa
B4: the binding result in the test with recombinant human IL-27 [1] was “no binding (tested: 30 nM)”.

B5: Ab7.23 (antibody, human IgG1, kappa, V domains shown)
VH: EVQLVESGGGLVQPGGSLRLSCAASGFTFTSYSMSWVRQAPGKGLEWVSYISYDGGSAYYPDTVKGRFTISRDNSKNTLYLQMNSLRAEDTAVYYCARHGDYDDDDAMDYWGQGTLVTVSS
VL: DIQMTQSPSSLSASVGDRVTITCRASENIYSYLNWYQQKPGKAPKLLVYNAETLTEGVPSRFSGSGSGTDFTLTISSLQPEDFATYYCQHHYGTPLTFGQGTKLEIKR
notes: humanized, human IgG1 / kappa; Ab7-VL4 variant; also called Ab7-VH5-IgG1 + Ab7-VL4-Kappa
Turning to B5, the binding result with recombinant human IL-27 [1] was “no binding (tested: 30 nM)”.

B6: SRF381 (antibody, V domains shown)
VH: EVQLVESGGGLVKPGGSLRLSCAASGFTFRSYGMNWVRQAPGKGLEWVSSISSSSSYIYYADSVKGRFTISRDNAKNSLYLQMNSLRAEDTAVYYCARDGGRTSYTATAHNWFDPWGQGTLVTVSS
VL: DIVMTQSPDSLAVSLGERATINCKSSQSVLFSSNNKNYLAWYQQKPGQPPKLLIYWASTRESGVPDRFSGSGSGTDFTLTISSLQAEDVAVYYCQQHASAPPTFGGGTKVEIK
As to B6, in the test with recombinant human IL-27 [2], the “IC50 of inhibition of IL-27-mediated phosphorylation of STAT1 in HUT-78 cells” value amounted to 0.08 µg/mL, the “IC50 of inhibition of IL-27-mediated phosphorylation of STAT1 in U937 cells” value was 0.081 µg/mL and the “IC50 of inhibition of IL-27-mediated phosphorylation of STAT1 in pooled human PBMCs” value worked out at 0.141 µg/mL.

B7: SRF388 (antibody, V domains shown)
VH: EVQLVESGGGLVKPGGSLRLSCAASGFTFRSYGMNWVRQAPGKGLEWVSGISSSGSYIYYADSVKGRFTISRDNAKNSLYLQMNSLRAEDTAVYYCARDGGRTSYTATAHNWFDPWGQGTLVTVSS
VL: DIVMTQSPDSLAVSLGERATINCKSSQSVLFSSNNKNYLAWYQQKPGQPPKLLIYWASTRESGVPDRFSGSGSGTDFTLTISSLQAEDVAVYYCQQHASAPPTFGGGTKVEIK
Turning to B7, in the test with recombinant human IL-27 [2], the “IC50 of inhibition of IL-27-mediated phosphorylation of STAT1 in HUT-78 cells” value was found to be 0.095 µg/mL, the “IC50 of inhibition of IL-27-mediated phosphorylation of STAT1 in U937 cells” value was found to be 0.096 µg/mL and the “IC50 of inhibition of IL-27-mediated phosphorylation of STAT1 in pooled human PBMCs” value is 0.0583 µg/mL.

B8: SRF605 (antibody, V domains shown)
VH: QVQLQESGPGLVKPSQTLSLTCTVSGGSISSGGYYWSWIRQHPGKGLEWIGNIYYSGSTYYNPSLKSRVTISVDTSKNQFSLKLSSVTAADTAVYYCARDGVYQPGAYYWGQGTLVTVSS
VL: DIQLTQSPSSVSASVGDRVTITCRASQGISSWLAWYQQKPGKAPKLLIYGASSLQSGVPSRFSGSGSGTDFTLTISSLQPEDFATYYCQQGVSFPITFGGGTKVEIKR
notes: also called SRF605-A; SRF605-B
In the case of B8, the binding result in the test with recombinant human IL-27 [3] was “binds”.
